In patent publication US20040197809A1:
“And” between values parts separate entries of the source, which are not always exact repeats. Equal entries are not always repeated.

Legend:
[1] = molecular target: HIV-1 strain HTLV-IIIB (virus) (HIV-1 strain HTLV-IIIB); experiment: cell-based or functional assay
[2] = molecular target: gp120, the major envelope glycoprotein of HIV-I (HIV-1); experiment: saturation binding of 125I-gp120 in solution, immunoprecipitation with OKT4, Scatchard analysis
[3] = molecular target: Fcγ receptor (determined with U937 cells) (Homo sapiens (Human)) (UniProt P12314); experiment: binding to Fcγ receptor on U937 cells, method of Anderson et al., J. Immunol. 125:2735-2741 (1980)
[4] = molecular target: gp120, the major envelope glycoprotein of HIV-I (HIV-1); experiment: gp120 binding by the method of Smith et al., Science 238:1704-07 (1987)

Chain of UniProt P12314 (P12314 16-374 limits assumed, form in doubt): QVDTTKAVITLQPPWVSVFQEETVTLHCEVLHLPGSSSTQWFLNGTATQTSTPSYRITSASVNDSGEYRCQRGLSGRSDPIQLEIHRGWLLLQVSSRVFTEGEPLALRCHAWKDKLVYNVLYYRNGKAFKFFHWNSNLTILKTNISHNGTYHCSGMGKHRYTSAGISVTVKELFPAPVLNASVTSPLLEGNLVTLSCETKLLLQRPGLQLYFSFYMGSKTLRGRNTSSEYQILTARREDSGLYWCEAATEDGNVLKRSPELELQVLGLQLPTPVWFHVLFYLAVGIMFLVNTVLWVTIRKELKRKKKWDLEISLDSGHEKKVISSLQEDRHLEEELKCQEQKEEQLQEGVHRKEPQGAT

Substance	Indirect immunofluorescence (% positive cells), inhibitor supernatant 1:4 (% positive cells) [1]	Reverse transcriptase (cpm/ml × 10^5), inhibitor supernatant 1:4 [1]	Reverse transcriptase (cpm/ml × 10^5), inhibitor supernatant undil. [1]	Kd [2]	Indirect immunofluorescence (% positive cells), inhibitor supernatant undil. (% positive cells) [1]	Kd [3]	Kd [4]
gDCD4T (signal peptide and first 27 residues of mature HSV type I gD glycoprotein fused to mature CD4T) (receptor)	26.8 and 36.1	992000 cpm/ml and 1.13e+06 cpm/ml	14000 cpm/ml and 23000 cpm/ml	0.72 nM	–	–	–
CD4T (CD4 fused after residue 368 of mature CD4 to 9 residues coded by pBR322 sequence) (from UniProt P01730 27-393) (receptor)	18 and 16.1	372000 cpm/ml and 594000 cpm/ml	11000 cpm/ml and 15000 cpm/ml	0.83 nM	0.4 and 0.8	–	–
bulk human IgG1 (antibody)	–	–	–	–	–	3.52 nM	–
CD44γ1 immunoadheson (CD4 to serine residue 366 fused to the constant region of human immunoglobulin γ1) (Fc fusion)	–	–	–	–	–	2.83 nM	1.2 nM
CD42γ1 immunoadheson (CD4 to glutamine residue 180 fused to the constant region of human immunoglobulin γ1) (Fc fusion)	–	–	–	–	–	3.01 nM	1.4 nM
